Substitutions are numbered along the chain they refer to.
Tests used:
[1] = molecular target: T1, human LAG-3 ECD (antigen protein of the affinity test) (human, UniProt P18627 23-450); assay: SPR (CM5 chip), antibody captured by anti-human Fc IgG, antigen protein in flow, 1:1 model
T1 sequence: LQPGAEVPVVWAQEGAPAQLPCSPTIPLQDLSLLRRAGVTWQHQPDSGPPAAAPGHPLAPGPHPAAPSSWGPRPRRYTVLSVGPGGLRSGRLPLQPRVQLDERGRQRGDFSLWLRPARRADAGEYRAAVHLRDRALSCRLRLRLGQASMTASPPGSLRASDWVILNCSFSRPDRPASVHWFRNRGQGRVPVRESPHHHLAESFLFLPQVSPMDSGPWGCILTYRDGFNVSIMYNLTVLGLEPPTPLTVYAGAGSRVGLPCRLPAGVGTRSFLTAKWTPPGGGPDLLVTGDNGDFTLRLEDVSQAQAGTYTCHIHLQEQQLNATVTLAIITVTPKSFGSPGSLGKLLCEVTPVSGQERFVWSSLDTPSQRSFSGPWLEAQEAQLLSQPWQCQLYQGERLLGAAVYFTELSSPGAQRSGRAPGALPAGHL
Procedure: (§1) First, anti-human Fc IgG was immobilized on the surface of the CM5 chip to 6000-10000 RU by amino coupling method, with FC1 as the reference channel. The coupling process was as follows: a freshly prepared 1:1 mixture of 50 mM NHS and 200 mM EDC was activated for 7 minutes, then injected with 10-50 ug/ml anti-human Fc IgG diluted in 10 mM sodium acetate ph5.0 buffer. The remaining activated sites were blocked with 1M ethanolamine. Then, HBS-EP+ buffer was used to dilute the antibody to be tested to 5 ug/ml (adjustable according to the capture level) and the antibodies were captured on the chip at a flow rate of 10 ul/min to obtain a response value of about 100˜300 RU. Then the antigen protein was diluted to 100 nM (the highest concentration was tentatively 100 nM), and flew through the chip surface at a flow rate of 30 ul/min. If enough signal value was obtained, the antigen-protein was diluted by several concentration gradients, and flew through the chip surface respectively. At the end of each cycle, the chip surface was regenerated with 10 mM Glycine at pH 1.5. The kinetic rate constant needed to be subtracted from the blank control, and the data was fitted with the global fit analysis method 1:1 combination model. The dissociation equilibrium rate constant (KD) was calculated according to the following formula: KD=kd/ka.
The method was the same as that in Example 5.

[2] = molecular target: T2, human LAG-3 on cells (HEK293-hLAG-3 stable cell line) (human, UniProt P18627 23-525); assay: FACS, HEK293-hLAG-3, antibody 0 nM
T2 sequence: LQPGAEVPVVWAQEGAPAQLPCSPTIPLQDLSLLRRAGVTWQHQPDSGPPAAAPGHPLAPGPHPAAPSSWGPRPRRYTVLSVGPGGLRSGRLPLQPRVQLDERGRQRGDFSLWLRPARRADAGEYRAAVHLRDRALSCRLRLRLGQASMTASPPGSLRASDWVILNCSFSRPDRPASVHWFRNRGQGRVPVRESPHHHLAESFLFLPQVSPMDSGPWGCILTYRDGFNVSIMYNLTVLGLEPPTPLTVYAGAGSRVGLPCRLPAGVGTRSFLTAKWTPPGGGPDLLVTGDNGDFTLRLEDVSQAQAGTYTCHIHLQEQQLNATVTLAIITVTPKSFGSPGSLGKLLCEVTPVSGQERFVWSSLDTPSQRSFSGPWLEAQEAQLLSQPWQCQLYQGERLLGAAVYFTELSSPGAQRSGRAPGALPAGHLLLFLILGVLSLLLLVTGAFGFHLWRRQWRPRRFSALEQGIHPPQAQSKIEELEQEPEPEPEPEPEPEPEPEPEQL

[3] = molecular target: T2, human LAG-3 on cells (HEK293-hLAG-3 …); assay: FACS, HEK293-hLAG-3, antibody 8 nM
[4] = molecular target: T2, human LAG-3 on cells (HEK293-hLAG-3 …); assay: FACS, HEK293-hLAG-3, antibody 40 nM
[5] = molecular target: T2, human LAG-3 on cells (HEK293-hLAG-3 …); assay: FACS, HEK293-hLAG-3, antibody 1.6 nM
[6] = molecular target: T2, human LAG-3 on cells (HEK293-hLAG-3 …); assay: FACS, HEK293-hLAG-3, antibody 0.32 nM
[7] = molecular target: T2, human LAG-3 on cells (HEK293-hLAG-3 …); assay: FACS, HEK293-hLAG-3, antibody 0.013 nM
[8] = molecular target: T2, human LAG-3 on cells (HEK293-hLAG-3 …); assay: FACS, HEK293-hLAG-3, antibody 0.064 nM
[9] = molecular target: T3, human LAG-3 ECD (antigen protein of the affinity test) (human, UniProt P18627 23-450); assay: SPR, CM5 chip, antibody captured by anti-human Fc IgG, antigen in flow, 1:1 fit
T3 sequence: T1 sequence
Procedure: as §1

B1: 556F6B8-3 (D→E) hot-spot mutated humanized antibody (antibody, V domains shown)
VH: QVQLQESGPGLVKPSETLSLTCTVSGFSLIKYGVHWIRQPPGKGLEWIGVIWRGGITDYNAAFMSRVTISKDTSKSQVSLKLSSVTAADTAVYYCARWEGPLAMDYWGQGTTVTVSS
VL: DIQLTQSPSFLSASVGDRVTITCKASQDVGTTVAWYQQKPGKAPKLLIYWASTRHTGVPSRFSGSGSGTEFTLTISSLQPEDFATYYCQQYSSYPYTFGQGTKLEIK
B1 showed a Kd [1] of 33.5 nM, a koff [1] of 0.00384 s⁻¹ and a kon [1] of 115000 M⁻¹ s⁻¹.

B2: 556F6B8-3 humanized antibody (antibody, V domains shown)
VH: B1 VH with E99D
VL: B1 VL
For B2, the Mean fluorescence intensity [2] was 4, the Mean fluorescence intensity [3] was 94 and the Mean fluorescence intensity [4] was 98. It also gave a Mean fluorescence intensity [5] of 83, a Mean fluorescence intensity [6] of 49 and a Mean fluorescence intensity [7] of 10. For the same binder, the Mean fluorescence intensity [8] was 21, the Kd [9] was 3.31 nM and the koff [9] was 0.000465 s⁻¹. For the same binder, the kon [9] was 141000 M⁻¹ s⁻¹.

B3: 556F6B8-7 humanized antibody (antibody, V domains shown)
VH: B1 VH with E99D
VL: B1 VL with Q3V
For B3, the Mean fluorescence intensity [2] was 4, the Mean fluorescence intensity [3] was 93 and the Mean fluorescence intensity [4] was 98. It also gave a Mean fluorescence intensity [5] of 79, a Mean fluorescence intensity [6] of 44 and a Mean fluorescence intensity [7] of 8. The Mean fluorescence intensity [8] was 18, the Kd [9] was 3.25 nM and the koff [9] was 0.000453 s⁻¹. It also gave a kon [9] of 139000 M⁻¹ s⁻¹.

B4: 405B8H3-1 (D→E) hot-spot mutated humanized antibody (antibody, V domains shown)
VH: QVQLVQSGAEVKKPGASVKVSCKASGYTFTDYEMHWVRQAPGQGLEWMGATDPETGNSAYNQKFKGRVTMTRDTSTSTVYMELSSLRSEDTAVYYCISTGWNDWGQGTTVTVSS
VL: DIQMTQSPSSLSASVGDRVTITCKASQDINSYLSWFQQKPGKAPKSLIYRADRLLEGVPSRFSGSGSGTDFTLTISSLQPEDFATYYCLQYDEFPYTFGQGTKLEIK
B4 showed a Kd [1] of 2.03 nM, a koff [1] of 0.000158 s⁻¹ and a kon [1] of 77500 M⁻¹ s⁻¹.

B5: 405B8H3 mouse-human chimeric antibody (antibody, V domains shown)
VH: QVQLQQSGAELVRPGASVTLSCKASGYTFTDYEMHWVKQTPVHGLEWIGATDPETGNSAYNQKFKGKAIMTADKSSSTAYMELRSLTSEDSAVYYCISTGWNDWGQGTSLTVSS
VL: DIKMTQSPSSMYASLGERVTITCKASQDINSYLSWFQQKPGKSPKTLIYRADRLLDGVPSRFSGSGSGQDYSLTISSLEYGDMGIYYCLQYDEFPYTFGGGTKLEIK
notes: also called mAb103-405B8H3
Binder B5 has a Kd [1] of 3.11 nM, a koff [1] of 0.000164 s⁻¹ and a kon [1] of 52800 M⁻¹ s⁻¹.

B6: 556F6B8 mouse-human chimeric antibody (antibody, V domains shown)
VH: RVQLKQSGPGLVQPSQSLSITCTVSGFSLIKYGVHWVRQSPGEGLEWLGVIWRGGITDYNAAFMSRLSITKDNSKSQVFFKMNSLQADDTAIYYCAKWDGPLAMDYWGQGTSVTVSS
VL: DIVMTQSHKFLSTSVGDRVSITCKASQDVGTTVAWYQQKPGQSPKLLIYWASTRHTGVPDRFTGSGSGTDFTLTISNVQSEDLADYFCQQYSSYPYTFGGGTKLEIK
notes: also called mAb123-556F6B8
Work on B6 yielded a Kd [1] of 2.68 nM, a koff [1] of 0.000433 s⁻¹ and a kon [1] of 162000 M⁻¹ s⁻¹.

From US20210155689A1 (SHANGHAI PHARMAEXPLORER, published 2021)
